For series [1], the target named is T1, AfsR (dephosphorylated AfsR) (Streptomyces coelicolor, UniProt P25941).
T1 construct: full-length, 993 residues, pET28a (His-tagged), E. coli BL21(DE3), Ni-NTA and SEC; wild type treated with lambda phosphatase (E. coli protein carries pT337); mainly monomer
Nature of the series: in vitro MangoIII transcription assay after preincubation. It counts as biochemical. The following applies: 500 nM dephosphorylated AfsR, 1 mM ATPγS preincubation 10 min 30 °C, RNAP-σHrdB, RbpA, CarD; activator.

In series [2] the target is T2, phosphorylated AfsR (phos-AfsR) (Streptomyces coelicolor, UniProt P25941).
T2 construct: full-length, 993 residues, pET28a (His-tagged), E. coli BL21(DE3); dephosphorylated, then phosphorylated in vitro by AfsKΔC (pS22, pT337, pS391, pT506, pS953 by MS), SEC
The description is as above. It counts as biochemical. The settings on record: 500 nM phosphorylated AfsR, 1 mM ATPγS preincubation; activator.

Series [3] deals with T3, AfsR 4E (Streptomyces coelicolor M145, UniProt P25941 1-993, S391E;T337E;T506E;S953E).
T3 sequence: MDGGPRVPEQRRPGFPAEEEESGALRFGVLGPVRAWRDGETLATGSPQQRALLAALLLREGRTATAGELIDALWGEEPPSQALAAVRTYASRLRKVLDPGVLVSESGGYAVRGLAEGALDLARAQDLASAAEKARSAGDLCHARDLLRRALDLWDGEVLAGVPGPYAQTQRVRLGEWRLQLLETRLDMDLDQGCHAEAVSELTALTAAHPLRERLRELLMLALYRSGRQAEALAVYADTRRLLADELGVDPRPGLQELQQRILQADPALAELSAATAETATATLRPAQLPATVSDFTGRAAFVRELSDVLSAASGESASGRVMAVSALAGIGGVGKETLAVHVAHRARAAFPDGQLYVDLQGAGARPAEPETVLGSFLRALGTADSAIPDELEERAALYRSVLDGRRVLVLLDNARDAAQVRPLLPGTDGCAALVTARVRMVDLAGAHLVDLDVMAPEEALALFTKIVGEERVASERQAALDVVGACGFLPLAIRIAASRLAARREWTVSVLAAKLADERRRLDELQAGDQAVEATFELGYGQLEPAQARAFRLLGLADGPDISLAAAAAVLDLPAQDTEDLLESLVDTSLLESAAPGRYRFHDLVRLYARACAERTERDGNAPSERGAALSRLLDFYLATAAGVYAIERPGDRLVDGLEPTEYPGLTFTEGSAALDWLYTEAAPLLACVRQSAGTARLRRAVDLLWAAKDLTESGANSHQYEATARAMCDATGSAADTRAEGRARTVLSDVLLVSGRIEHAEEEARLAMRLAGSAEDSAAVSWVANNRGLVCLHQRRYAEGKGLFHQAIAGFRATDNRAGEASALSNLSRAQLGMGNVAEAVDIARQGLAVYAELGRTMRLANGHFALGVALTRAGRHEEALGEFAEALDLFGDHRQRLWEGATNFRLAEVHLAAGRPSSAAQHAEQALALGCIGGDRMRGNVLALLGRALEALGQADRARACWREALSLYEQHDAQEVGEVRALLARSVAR
Kind of series: fluorescence polarization; stronger than dephosphorylated AfsR; FP: 20 mM HEPES pH 7.5, 100 mM NaCl, 5 mM MgCl2, 2 mM DTT, 5% glycerol, 0.1 ug/ml poly(dI-dC), 10 nM DNA, 30 C, 20 min. The settings on record: protein: recombinant; tags: pET28a His tag (Ni-NTA); chain copies: 2; label: 5'-FAM; blunt. For orientation: Polarisation of emitted light reports the rotation of a fluorescent probe.

In series [4] the target is T4, AfsR SARP domain (Streptomyces coelicolor M145, UniProt P25941 1-270).
T4 sequence: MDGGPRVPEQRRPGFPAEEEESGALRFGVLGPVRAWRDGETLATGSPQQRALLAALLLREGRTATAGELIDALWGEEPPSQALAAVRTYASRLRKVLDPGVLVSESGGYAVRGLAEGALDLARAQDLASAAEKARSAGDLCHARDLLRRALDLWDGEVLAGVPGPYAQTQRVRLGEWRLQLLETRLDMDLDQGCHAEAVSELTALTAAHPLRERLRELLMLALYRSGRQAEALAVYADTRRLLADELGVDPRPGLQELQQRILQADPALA
Kind of series: fluorescence polarization; 5 mM Mg2+; poly(dI-dC); FP: 20 mM HEPES pH 7.5, 100 mM NaCl, 5 mM MgCl2, 2 mM DTT, 5% glycerol, 0.1 ug/ml poly(dI-dC), 10 nM DNA, 30 C, 20 min. The settings on record: protein: recombinant; tags: pET28a His tag (Ni-NTA); chain copies: 2; label: 5'-FAM; blunt.

Series [5] deals with T5, AfsR, dephosphorylated (Streptomyces coelicolor M145, UniProt P25941 1-993).
T5 sequence: T3 sequence with E337T, E391S, E506T, E953S
Kind of series: fluorescence polarization; preincubated with ATP; DNA binding unchanged; FP: 20 mM HEPES pH 7.5, 100 mM NaCl, 5 mM MgCl2, 2 mM DTT, 5% glycerol, 0.1 ug/ml poly(dI-dC), 10 nM DNA, 30 C, 20 min. The settings on record: protein: recombinant; tags: pET28a His tag (Ni-NTA); chain copies: 2; label: 5'-FAM; blunt.

The target of series [6] is AfsR SARP domain;RNAP-sigmaHrdB holoenzyme;RbpA;CarD (Streptomyces coelicolor …, UniProt P25941;P60312;Q9L0L0;Q8CJT1;P18183;Q9KXS1;Q9RKY0;Q9L0Q9 …, |||). Kind of series: cryo-EM; 3.35 A; open complex, 13-nt bubble; FP: 20 mM HEPES pH 7.5, 100 mM NaCl, 5 mM MgCl2, 2 mM DTT, 5% glycerol, 0.1 ug/ml poly(dI-dC), 10 nM DNA, 30 C, 20 min. The settings on record: protein: recombinant;;recombinant;recombinant; tags: pET28a His tag (Ni-NTA);;pET28a His tag (Ni-NTA);pET28a His tag (Ni-NTA); chain copies: 2;2;1;1;1;1;1;1; 44 bp duplex, 6-nt mismatched bubble (-6 to -1), 15 bp duplex.

Numbering of substitutions follows the chain as printed.

T2 sequence (P25941 whole entry): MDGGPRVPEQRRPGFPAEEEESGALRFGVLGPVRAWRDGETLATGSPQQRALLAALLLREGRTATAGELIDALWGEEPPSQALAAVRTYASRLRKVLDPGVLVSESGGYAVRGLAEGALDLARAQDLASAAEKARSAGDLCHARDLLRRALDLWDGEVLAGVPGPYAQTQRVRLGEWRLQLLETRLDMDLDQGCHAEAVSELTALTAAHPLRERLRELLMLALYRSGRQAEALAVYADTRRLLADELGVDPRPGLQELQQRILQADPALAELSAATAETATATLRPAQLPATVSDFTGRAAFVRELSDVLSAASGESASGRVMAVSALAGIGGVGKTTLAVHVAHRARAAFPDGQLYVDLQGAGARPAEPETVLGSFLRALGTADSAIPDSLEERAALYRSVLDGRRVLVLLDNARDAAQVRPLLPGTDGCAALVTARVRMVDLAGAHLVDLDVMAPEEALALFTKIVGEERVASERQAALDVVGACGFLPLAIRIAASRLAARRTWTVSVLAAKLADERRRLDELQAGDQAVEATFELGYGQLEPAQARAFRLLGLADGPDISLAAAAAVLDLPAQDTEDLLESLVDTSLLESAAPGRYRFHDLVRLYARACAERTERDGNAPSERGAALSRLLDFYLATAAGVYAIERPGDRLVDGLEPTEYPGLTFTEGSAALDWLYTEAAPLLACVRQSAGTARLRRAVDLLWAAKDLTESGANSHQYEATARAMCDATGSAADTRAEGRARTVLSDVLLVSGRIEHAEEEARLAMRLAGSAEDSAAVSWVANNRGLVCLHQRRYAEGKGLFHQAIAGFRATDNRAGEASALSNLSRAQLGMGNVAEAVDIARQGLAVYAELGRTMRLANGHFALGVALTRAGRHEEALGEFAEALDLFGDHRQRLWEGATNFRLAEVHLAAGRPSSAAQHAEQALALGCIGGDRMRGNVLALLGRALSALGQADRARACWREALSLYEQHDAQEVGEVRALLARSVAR
T1 sequence (P25941 whole entry): as above

In the case of `Nc1ncnc2c1ncn2[C@@H]1O[C@H](COP(=O)(O)OP(=O)(O)OP(O)(O)=S)[C@@H](O)[C@H]1O` [ATPγS], the transcription activation entry is “comparable effect of preincubation with a non-hydrolyzable ATP analogue, ATPγS” in series [1] and “exhibits partial activation in response to non-hydrolysable ATPγS” in series [2].

B1: afs box (-45 to -14) (dsDNA)
DNA 1: CGGAGCGTTCAGCGTTCGTTTATCTCCCCCTG
DNA 2: CAGGGGGAGATAAACGAACGCTGAACGCTCCG
Turning to B1, the binding result in series [3], in series [4] and in series [5] was “binds” each time.

B2: afsS promoter scaffold -50 to +15, 6-nt bubble (dsDNA)
DNA 1: GTAGCCGGAGCGTTCAGCGTTCGTTTATCTCCCCCTGGCACTGTCATCTCCGTCAGACCGTCGCA
DNA 2: TGCGACGGTCTGACGCTCTACACAGTGCCAGGGGGAGATAAACGAACGCTGAACGCTCCGGCTAC
Take B2: the binding result in series [6] is listed as “binds”.

The values above are taken from article PMC10936776, “Structural and functional characterization of AfsR, an SARP family transcriptional activator of antibiotic biosynthesis in Streptomyces” (PLOS Biology, 2024).
